Consider one molecule from US20110020437A1 (APIM THERAPEUTICS, published 2011).

The target in the test is T1, proliferating cell nuclear antigen (PCNA) (UniProt P12004 1-261).
T1 construct: Used both for endogenous PCNA of HeLa cell extracts (co-IP, cross-linking) and for the untagged 'PCNA' used as probe in the dot blot; also called endogenous PCNA
Put plainly: co-IP with anti-GFP antibodies from stably expressing cells, anti-PCNA western blot. As for the experimental part: An in-house affinity purified rabbit polyclonal antibody raised against GFP protein, which also recognises EYFP and ECFP proteins, was covalently linked to protein-A paramagnetic beads (Dynal®) according to procedure from New England Biolabs® Inc (from now on called α-GFP beads). Each fraction was incubated with α-GFP beads (10 μl) during constant rotation at 4° C. over night (IP). After IP, the beads were washed 4 times with 200 μl 10 mM Tris-HCl, 50 mM KCl (pH 7.5), with 5 min incubation on ice in between. The beads were then resuspended in NuPAGE ® (Invitrogen) loading buffer and 1 mM DTT, heated, and separated on 10% or 4-12% Bis-Tris-HCl (NuPAGE®) gels and transferred to PVDF membranes (Imrnobilon®, Millipore). The membranes were blocked for 1 h in 5% low fat dry milk in PBST (PBS with 0.1% Tween® 20). The primary antibodies, α-PCNA (PC10, Santa Cruz biotechnology Inc.) and α-GFP were diluted in 1% dry milk in PBST and incubated for 1 h, followed by 1 h incubation with secondary antibodies, Polyclonal Rabbit Anti-mouse IgG/HRP and Polyclonal Swine Anti-rabbit IgG/HRP, respectively (DakoCytomation, Denmark). The membranes were treated with chemiluminescence reagent (SuperSignal® West Femto Maximum, PIERCE), and the proteins visualised in Kodak Image Station 2000R. […]
A general note: A western blot detects proteins with antibodies after separation by electrophoresis.

T1 sequence (P12004 whole entry): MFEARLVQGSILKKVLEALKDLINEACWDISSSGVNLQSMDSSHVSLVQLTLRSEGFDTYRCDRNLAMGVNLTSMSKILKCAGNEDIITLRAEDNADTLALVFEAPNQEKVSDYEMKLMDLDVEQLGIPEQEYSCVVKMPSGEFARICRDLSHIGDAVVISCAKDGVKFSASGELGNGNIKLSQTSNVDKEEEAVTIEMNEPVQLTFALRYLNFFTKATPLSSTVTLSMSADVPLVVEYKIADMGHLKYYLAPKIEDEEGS

B1: hABH211-261-EYFP (other, human, UniProt Q6NS38 11-261, looked up)
chain: GGLLRKQEEQEPTGEEPAVLGGDKESTRKRPRREAPGNGGHSAGPSWRHIRAEGLDCSYTVLFGKAEADEIFQELEKEVEYFTGALARVQVFGKWHSVPRKQATYGDAGLTYTFSGLTLSPKPWIPVLERIRDHVSGVTGQTFNFVLINRYKDGCDHIGEHRDDERELAPGSPIASVSFGACRDFVFRHKDSRGKSPSRRVAVVRLPLAHGSLLMMNHPTNTHWYHSLPVRKKVLAPRVNLTFRKILLTKK
notes: not shown: C-terminal EYFP tag (pEYFP-N1)
As for B1, the binding result is on record as “no binding”.
